# Laboratory results from US20260209350A1 (Alector, published 2026).
# Key:
# [1] = molecular target: T1, human TREM2 Fc fusion protein (human, UniProt Q9NZC2 19-174); test: ForteBio or MSD-SET, avid
# T1 construct: also called hTREM2-Fc; not shown: Fc part not specified
# T1 sequence: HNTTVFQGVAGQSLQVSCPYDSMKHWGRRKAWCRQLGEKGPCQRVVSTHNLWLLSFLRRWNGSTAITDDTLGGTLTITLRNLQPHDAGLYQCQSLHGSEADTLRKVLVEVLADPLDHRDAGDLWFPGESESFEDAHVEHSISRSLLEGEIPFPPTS
# mouse TREM2 on cells = molecular target: T2, mouse TREM2 on cells (mouse, UniProt Q99NH8 19-227); test: FACS, mTrem2 cells
# T2 construct: whole, on cells; Used for the recombinant protein on BWZ/BW cells (with mouse DAP12) and for the native protein on mouse macrophages and dendritic cells; the cell type stands under assay; also called mTREM2; mTrem2
# T2 sequence (looked up): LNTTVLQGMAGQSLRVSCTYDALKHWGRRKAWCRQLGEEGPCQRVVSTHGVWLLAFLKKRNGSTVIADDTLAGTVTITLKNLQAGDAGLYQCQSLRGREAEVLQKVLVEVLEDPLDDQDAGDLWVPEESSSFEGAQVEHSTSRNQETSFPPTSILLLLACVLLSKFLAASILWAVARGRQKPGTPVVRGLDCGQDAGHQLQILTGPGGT
# [2] = molecular target: T3, mouse TREM2 Fc fusion protein (mouse, UniProt Q99NH8 19-171); test: ForteBio or MSD-SET, avid
# T3 construct: also called mTREM2-Fc; not shown: Fc part not specified
# T3 sequence (looked up): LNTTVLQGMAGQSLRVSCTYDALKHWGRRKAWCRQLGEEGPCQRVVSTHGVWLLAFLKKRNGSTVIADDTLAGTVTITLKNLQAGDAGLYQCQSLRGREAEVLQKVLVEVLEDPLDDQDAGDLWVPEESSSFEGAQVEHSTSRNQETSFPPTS
Binder,Kd [1],MFI (mouse TREM2 on cells),binding result [2],Kd [2]
"Ab76 (antibody, human IgG1, V domains shown, human IgG1) VH: EVQLVESGGGLVKPGGSLRLSCAASGFTFSSYSMNWVRQAPGKGLEWVSSISSSSSYIYYADSVKGRFTISRDNAKNSLYLQMNSLRAEDTAVYYCARGGGRRGDNNWFDPWGQGTLVTVSS VL: not shown",4.84 nM,,,
"Ab73 (antibody, human IgG1, V domains shown, human IgG1) VH: EVQLVQSGAEVKKPGESLKISCKGSGYSFTSYWIGWVRQMPGKGLEWMGIIYPGDSDTTYSPSFQGQVTISADKSISTAYLQWSSLKASDTAMYYCARAKMLDDGYAFDIWGQGTMVTVSS VL: EIVMTQSPATLSVSPGERATLSCRASQSVSSNLAWYQQKPGQAPRLLIYGASTRATGIPARFSGSGSGTEFTLTISSLQSEDFAVYYCQQDDNYPYTFGGGTKVEIK",4.1 nM,1120 MFI,no binding,
"Ab30 (antibody, human IgG1, V domains shown, human IgG1) VH: not shown VL: DIQMTQSPSSLSASVGDRVTITCRASQSISSYLNWYQQKPGKAPKLLIYGASSLQSGVPSRFSGSGSGTDFTLTISSLQPEDFATYYCQQVYITPITFGGGTKVEIK",1.32 nM,,no binding,
"Ab82 (antibody, human IgG1, V domains shown, human IgG1) VH: QVQLQESGPGLVKPSQTLSLTCTVSGGSISSGGYYWSWIRQHPGKGLEWIGYIYYSGSTVYNPSLKSRVTISVDTSKNQFSLKLSSVTAADTAVYYCARVSSSWYKAWGQGTMVTVSS VL: DIQMTQSPSSVSASVGDRVTITCRASQGISSWLAWYQQKPGKAPKLLIYAASSLQSGVPSRFSGSGSGTDFTLTISSLQPEDFATYYCQQASTFPITFGGGTKVEIK",11 nM,712 MFI,,5.82 nM
"Ab83 (antibody, human IgG1, V domains shown, human IgG1) VH: QVQLQQWGAGLLKPSETLSLTCAVYGGSFSGYYWSWIRQPPGKGLEWIGEIDHSGSTKYNPSLKSRVTISVDTSKNQFSLKLSSVTAADTAVYYCARVGVVVGRPGYSAFDIWGQGTMVTVSS VL: DIQMTQSPSSVSASVGDRVTITCRASQGISSWLAWYQQKPGKAPKLLIYAASSLQSGVPSRFSGSGSGTDFTLTISSLQPEDFATYYCQQRNSLPLTFGGGTKVEIK",8.21 nM,,,
"Ab86 (antibody, human IgG1, V domains shown, human IgG1) VH: QVQLVESGGGVVQPGRSLRLSCAASGFTFSSYGMHWVRQAPGKGLEWVAVISYDGSNKYYADSVKGRFTISRDNSKNTLYLQMNSLRAEDTAVYYCAKDGVYYGLGNWFDPWGQGTLVTVSS VL: not shown",3.89 nM,355 MFI,,6.55 nM
"Ab25 (antibody, human IgG1, V domains shown, human IgG1) VH: not shown VL: EIVLTQSPGTLSLSPGERATLSCRASQSVSSSYLAWYQQKPGQAPRLLIYGASSRATGIPDRFSGSGSGTDFTLTISRLEPEDFAVYYCQQDDRSPTFGGGTKVEIK",,2500 MFI,,5.98 nM
"Ab29 (antibody, human IgG1, V domains shown, human IgG1) VH: QVQLVESGGGVVQPGRSLRLSCAASGFTFSSYGMHWVRQAPGKGLEWVAVISYDGSNKYYADSVKGRFTISRDNSKNTLYLQMNSLRAEDTAVYYCARGQYYGGSGWFDPWGQGTLVTVSS VL: EIVLTQSPGTLSLSPGERATLSCRASQSVSSSYLAWYQQKPGQAPRLLIYGASSRATGIPDRFSGSGSGTDFTLTISRLEPEDFAVYYCQQPGAVPTFGGGTKVEIK",2.36 nM,4520 MFI,,3.27 nM
"Ab27 (antibody, human IgG1, V domains shown, human IgG1) VH: not shown VL: EIVLTQSPATLSLSPGERATLSCRASQSVSSYLAWYQQKPGQAPRLLIYDASNRATGIPARFSGSGSGTDFTLTISSLEPEDFAVYYCQQYNNFPPTFGGGTKVEIK",1.33 nM,2160 MFI,,6.39 nM
"Ab28 (antibody, human IgG1, V domains shown, human IgG1) VH: not shown VL: EIVLTQSPATLSLSPGERATLSCRASQSVSSYLAWYQQKPGQAPRLLIYDASKRATGIPARFSGSGSGTDFTLTISSLEPEDFAVYYCQQRYLRPITFGGGTKVEIK",0.915 nM,5250 MFI,,7.45 nM
"Ab81 (antibody, human IgG1, V domains shown, human IgG1) VH: QVQLVQSGAEVKKPGSSVKVSCKASGGTFSSYAISWVRQAPGQGLEWMGGIIPIFGTANYAQKFQGRVTITADESTSTAYMELSSLRSEDTAVYYCARDSGNYDYWSGALRYWGQGTLVTVSS VL: EIVLTQSPATLSLSPGERATLSCRASQSVSSYLAWYQQKPGQAPRLLIYDASNRATGIPARFSGSGSGTDFTLTISSLEPEDFAVYYCQQSSNWPWTFGGGTKVEIK",10.1 nM,400 MFI,no binding,
"Ab75 (antibody, human IgG1, V domains shown, human IgG1) VH: not shown VL: EIVLTQSPATLSLSPGERATLSCRASQSVSSYLAWYQQKPGQAPRLLIYDASNRATGIPARFSGSGSGTDFTLTISSLEPEDFAVYYCQQVSNYPFTFGGGTKVEIK",5.88 nM,276 MFI,no binding,
"Ab80 (antibody, human IgG1, V domains shown, human IgG1) VH: QVQLVQSGAEVKKPGSSVKVSCKASGGTFSSYAISWVRQAPGQGLEWMGGIIPIFGTANYAQKFQGRVTITADESTSTAYMELSSLRSEDTAVYYCARGGGTFWSGSWALYWGQGTLVTVSS VL: EIVLTQSPATLSLSPGERATLSCRASQSVSSYLAWYQQKPGQAPRLLIYDASNRATGIPARFSGSGSGTDFTLTISSLEPEDFAVYYCQQYVNWPFTFGGGTKVEIK",5.72 nM,593 MFI,,8.85 nM
"Ab60 (antibody, human IgG1, V domains shown, human IgG1) VH: not shown VL: EIVLTQSPATLSLSPGERATLSCRASQSVSSYLAWYQQKPGQAPRLLIYDASKRATGIPARFSGSGSGTDFTLTISSLEPEDFAVYYCQQRASMPITFGGGTKVEIK",5.59 nM,,,
"Ab41 (antibody, human IgG1, V domains shown, human IgG1) VH: EVQLLESGGGLVQPGGSLRLSCAASGFTFSTYAMSWVRQAPGKGLEWVSAISGSGGSTYYADSVKGRFTISRDNSKNTLYLQMNSLRAEDTAVYYCARAMARKSVAFDIWGQGTMVTVSS VL: EIVLTQSPATLSLSPGERATLSCRASQSVSSYLAWYQQKPGQAPRLLIYDASNRATGIPARFSGSGSGTDFTLTISSLEPEDFTVYYCQQRYALPITFGGGTKVEIK",2.14 nM,373 MFI,,8.64 nM
"Ab61 (antibody, human IgG1, V domains shown, human IgG1) VH: QVQLVQSGAEVKKPGASVKVSCKASGYTFTSYGIHWVRQAPGQGLEWMGWISAYNGNTNYAQKLQGRVTMTTDTSTSTAYMELRSLRSDDTAVYYCARGGVPRVSYFQHWGQGTLVTVSS VL: EIVLTQSPATLSLSPGERATLSCRASQSVSSYLAWYQQKPGQAPRLLIYDSSNRATGIPARFSGSGSGTDFTLTISSLEPEDFAVYYCQQAFNRPPTFGGGTKVEIK",4.61 nM,10500 MFI,,
"Ab74 (antibody, human IgG1, V domains shown, human IgG1) VH: not shown VL: EIVLTQSPATLSLSPGERATLSCRASQSVSSYLAWYQQKPGQAPRLLIYDASNRATGIPARFSGSGSGTDFTLTISSLEPEDFAVYYCQQRSTFPITFGGGTKVEIK",9.43 nM,1360 MFI,,4.91 nM
"Ab37 (antibody, human IgG1, V domains shown, human IgG1) VH: not shown VL: EIVLTQSPATLSLSPGERATLSCRASQSVSSYLAWYQQKPGQAPRLLIYDASNRATGIPARFSGSGSGTDFTLTISSLEPEDFAVYYCQQRAFLFTFGGGTKVEIK",1.58 nM,1430 MFI,no binding,
"Ab77 (antibody, human IgG1, V domains shown, human IgG1) VH: QVQLVESGGGVVQPGRSLRLSCAASGFTFSSYGMHWVRQAPGKGLEWVAVISYDGSNKYYADSVKGRFTISRDNSKNTLYLQMNSLRAEDTAVYYCARGPPHEMDYWGQGTLVTVSS VL: not shown",,1650 MFI,no binding,
"Ab79 (antibody, human IgG1, V domains shown, human IgG1) VH: EVQLVESGGGLVQPGGSLRLSCAASGFTFSSYSMNWVRQAPGKGLEWVSYISGSSSTIYYADSVKGRFTISRDNAKNSLYLQMNSLRAEDTAVYYCARGGRRHYGGMDVWGQGTTVTVSS VL: not shown",10.7 nM,738 MFI,no binding,
"Ab24 (antibody, human IgG1, V domains shown, human IgG1) VH: not shown VL: DIQMTQSPSSLSASVGDRVTITCRASQSISSYLNWYQQKPGKAPKLLIYAASSLQSGVPSRFSGSGSGTDFTLTISSLQPEDFATYYCQQAFSPPPWTFGGGTKVEIK",0.479 nM,2760 MFI,,9.32 nM
"Ab85 (antibody, human IgG1, V domains shown, human IgG1) VH: QVQLVESGGGVVQPGRSLRLSCAASGFTFSSYGMHWVRQAPGKGLEWVAVIWYDGSNKYYADSVKGRFTISRDNSKNTLYLQMNSLRAEDTAVYYCAKDLGGYYGGAAYGMDVWGQGTTVTVSS VL: DIQLTQSPSSVSASVGDRVTITCRASQDISSWLAWYQQKPGKAPKLLIYAASSLQSGVPSRFSGSGSGTDFTLTISSLQPEDFATYYCQQEVDYPPLTFGGGTKVEIK",5.72 nM,1120 MFI,,2.19 nM
